We go through two molecules from US12668821B2, “Enzymatic production of glucaric acid from glucuronic acid” (THE GOVERNING COUNCIL OF THE UNIVERSITY OF TORONTO, priority 2019, dated 2026).

Like-named read-outs stand apart in the source and are kept apart here.

Data set [1] is described as follows: Release of MeGlcA from glucuronoxylan by AxyAgu115A (HPAEC-PAD). The data set is classed as biochemical, beechwood. The conditions noted are these: from 1.5 g glucuronoxylan, calculated on the MeGlcA standard curve. The protocol:
Glucuronoxylan (6%) was incubated with AxyAgu115A (10 μg/mL) and GOOX-Y300A (10 μg/mL) in 100 mM Tris buffer pH 8.0 at 40° C. in a rotator oven for up to 72 h. The reactions were then vacuum-filtered using 96-well filter plates (0.22-μm PVDF membrane) (Millipore, USA) in a Tecan liquid handler (500 mbar) (Tecan Trading AG, Switzerland). Enzymatic products in the flow-through were confirmed by mass spectrometry and quantified by HPAEC-PAD analysis.
Reaction samples were vacuum-filtered using 0.22-μm, PVDF filter plates (Millipore, USA) with a Tecan liquid handler (500 mbar) (Tecan Trading AG, Switzerland). […] The presence of acidic sugars was detected using an ICS5000 HPAEC-PAD system (Dionex, USA) with a CarboPac PA1 (2×250 mm) analytical column (Dionex, USA). […] Chromatograms were analyzed using Chromeleon 7.2 (Dionex, USA).
AxyAgu115A was produced with high purity (FIG. 2). The treatment of glucuronoxylan with AxyAgu115A released only MeGlcA, as analyzed by HPAEC-PAD (FIG. 3), and no additional release of MeGlcA was seen after 16 h. […]
The concentration of MeGlcA released from 1.5 g glucuronoxylan was 21.6±1.2 mM, calculated by on the MeGlcA standard curve (FIG. 5) whereas the estimated molar concentration of MeGlcA, based on a previous analysis of glucuronoxylan composition (Teleman et al., 2002), was 24.4 mM. […]

Data set [2] can be described thus: H2O2 inhibition assay of AxyAgu115A on glucuronoxylan. The data set is classed as biochemical, beechwood. On the procedure: FIG. 10: HPAEC-PAD analyses of H2O2 effects on AxyAgu115A activity and MeGlcA degradation.
AxyAgu115A (10 μg/mL) was incubated with 1% glucuronoxylan in 50 mM Tris buffer pH 8.0 in the presence of various H2O2 concentrations (0.01-100 mM). MeGlcA (1 mM) was also incubated with the same H2O2 concentrations. The reactions were kept in the dark at 40° C. for 16 h in a thermomixer (Eppendorf, USA). Catalase (200 μg/mL) was then added, and the reactions were kept incubating for another 30 min to remove H2O2 before HPAEC-PAD analysis.
The MeGlcA concentration released by AxyAgu115A from 6% glucuronoxylan after 16 h was around the Km of GOOX-Y300A on this acidic sugar, supporting the usage of GOOX-Y300A and AxyAgu115 in a one-pot reaction. […] Thus, a one-pot sequential reaction was performed where GOOX-Y300A was added to the reaction after pre-hydrolysis of glucuronoxylan by AxyAgu115A for 4 h. Following 16 h of incubation with GOOX-Y300A, methyl glucaric acid yields were similar to those achieved using the two-pot sequential system described above (i.e., 60% yield as confirmed by LC-MS).

The nature of data set [3]: Activity screening of GOOX variants and glucose oxidase on MeGlcA. The data set is classed as biochemical. The protocol: (§1) FIG. 11: Activity screening of GOOX variants and glucose oxidase (GO) on GlcA and MeGlcA substrates. The enzymes (16 nM) were assayed at 37° C. with 10 mM GlcA and 1 mM MeGlcA in 100 mM Tris buffer pH 8.0 (for GOOX variants) or 50 mM sodium acetate pH 5.0 (for GO). The dotted line indicates the activity of GOOX-VN for MeGlcA for ease of comparison. “CtCBM22A-wtGOOX” and “CtCBM22A-Y300A” represent fusion proteins where the C terminus of the xylan-binding protein CtCBM22A (described in Vuong and Master, 2014) is fused to the N terminus GOOX.
(§2) The specific activity of GOOX-Y300A (16 nM) on MeGlcA and GlcA (1 mM) was measured in 50 mM Tris buffer pH 8.0 at 40° C. The amount of methyl glucaric acid was determined by measuring the release of H2O2 using a previously published colorimetric assay (Lin et al., 1991). The kinetics of GOOX-Y300A on these acidic sugars were measured at the same condition, but using up to 60 mM MeGlcA and GlcA and in 0.3 M Tris buffer pH 8.0.

The conditions of data set [4]: 200 mM H2O2; cited from earlier work.
Data set [5] in a line: Activity screening of GOOX variants and glucose oxidase on GlcA. The data set is classed as biochemical. The following applies: enzyme 16 nM, 37° C., 10 mM GlcA (FIG. 11 legend; b102 says 100 mM), 100 mM Tris pH 8.0 (GOOX variants) or 50 mM sodium acetate pH 5.0 (GO). On the procedure:
as §1, §2

The conditions of data set [6]: Foumani et al., 2011; read-out: Km on glucose; cited from earlier work.
For data set [7] the following is noted: 200 mM H2O2; cited from earlier work. This is another data set of the same source.
Data set [8] in a line: Kinetics of GOOX-Y300A on MeGlcA (H2O2 colorimetric assay). The data set is classed as biochemical. The following applies: up to 60 mM MeGlcA, 0.3 M Tris buffer pH 8.0, 40° C. The protocol: as §2
There was a dose response for the production of methyl glucaric acid, as the relative abundance of methyl glucaric acid increased when the substrate concentration was raised from 1 mM to 10 mM.

The nature of data set [9]: MeGlcA oxidation by GOOX-Y300A, substrate consumption by HPAEC-PAD. The data set is classed as biochemical. The following applies: after 24 h, 300 mM Tris buffer, 60 mM MeGlcA, based on substrate consumption. The source says: Reaction samples were vacuum-filtered using 0.22-μm, PVDF filter plates (Millipore, USA) with a Tecan liquid handler (500 mbar) (Tecan Trading AG, Switzerland). The flow-through was collected to Nunc™ 96-well polypropylene microplates (Thermo Fisher Scientific, USA), and covered with Nunc™ 96-well silicone cap mats. The presence of acidic sugars was detected using an ICS5000 HPAEC-PAD system (Dionex, USA) with a CarboPac PA1 (2×250 mm) analytical column (Dionex, USA). The HPAEC-PAD samples were eluted at 0.25 mL/min using NaOAc gradient (0-0.5 M) in 0.1 M NaOH. Chromatograms were analyzed using Chromeleon 7.2 (Dionex, USA).
In an attempt to improve the oxidation of GOOX-Y300A, the ionic strength of the Tris buffer was increased to 300 mM and the concentration of MeGlcA was brought up to 60 mM, higher than its Km. NSI-MS confirmed an increase in the intensity ratio of methyl glucaric acid over MeGlcA (FIG. 9). […] Provided that a similar xylan source was used, the conversion yield reported from the 3-enzyme pathway by Lee et al. (2016) (Lee et al., 2016a) was estimated ca. 20%, as determined by measuring NADH absorbance at 340 nm.

B1: AxyAgu115A: GH115 α-glucuronidase from Amphibacillus xylanus, SEQ ID NO: 4 (protein, listed as Amphibacillus xylanus)
chain: MDFTLNQEMLMTDTKSGALFYQEEEALSGVRKIANKVMHDVELVFGYQPEATKDRDMLSRHAVLYGTVGHSPLLDELNKKELIDLTEIAGKREVFLFQVVDQPIQGVEKALVIAGSDKRGTIYGLFHLSEKLGVSPLVDWSGVLPARKESFSLKGDYKYVSKEPSVKYRGFFINDEWPAFGNWSAKNFGGFNAEMYDHVFELLLRLKGNYLWPAMWSARFNDDGPGLANVELADEYGVIMGASHHEPCLRYGEEYKYLRGPDSIYGDAWNFITNREGITKFWEDGLKRTGHFENIITIGMRGEADTKIMGEDATLEDNINLLRDVIQTQNKLIKEHVNPNLKEVPRMLALYKEVEPFFYGDENTPGLINSEELEDVILMLCDDNHGNLRTLPTEDMRKHSGGYGMYYHFDYHGGPVSYEWINSSYLPKIWEQMTMAYDFGVRDLWIVNVGDIATQELPLSFFLDLAYDFDKWGTNAINKTDDYTKQWIEQQFAGVFNLEQKDKVFELLNGYTKIAHNRRPEAMNVDVYHPVNYHETDQLLDRIDHLLGLAEELYQEVDQQHFTAYFALVYYPTVGNLNLQKMWLLNGKNKYAAQLNLIEANKLAEQVKACLKRDQEIVDEYHTIADGKFYGMGLSEHIGFVHWNEDENKNPVLSYVLPVNKPRLLVSIDGTELRSEGSPWHVNTLPLVDFLEPDVNQASFTISSVSEKKAEYHISTDQDWLSCSAANGVLDGKNKLSETIHVFVDRDGLADQAEGRITVKTPVGKVTIVVPVVNNDFTNYPDMTFVDTKGYISIEAEHFATQKATENLDGTLNRFEVLDGYGKTLSAIKAFPTDTHYQVGKDAPFVEYHFVTQEAGVYELEFYLQPSNPVTREGTMYAGIQVNENDVDVINVLPDGYHVDGPHWGIDVINNIRTTKTKITCEQGLNKLRIYAVSPGFALEKIVIYPDGKKLANSYLGPNETYYVGR
For B1, the “concentration of MeGlcA released from glucuronoxylan” value in data set [1] is 21.6 ± 1.2 mM. Besides, the “activity lost in the presence of H2O2” value in data set [2] (10 mM H2O2) is reported as “approximately half of AxyAgu115A activity was lost”. Besides, the “H2O2 concentration at which activity was inhibited” value in data set [2] (1% glucuronoxylan, 50 mM Tris pH 8.0, 40° C., 16 h) was “greater than 1 mM”. In data set [2] (peak area, HPAEC-PAD, FIG. 10A), the “effect of higher H2O2 concentrations on MeGlcA released from glucuronoxylan” value was “lowered the amount of MeGlcA released”.

B2: Y300A: GOOX variant with Y300A relative to SEQ ID NO: 1 (protein, listed as Sarocladium strictum)
chain: NSINACLAAADVEFHEEDSEGWEMDGTAFNLRVDYDPVAIAIPRSTEDIAAAVQCGLDAGVQISAKGGGHSYGSYGFGGEDGHLMLELDRMYRVSVDDDNVATIQGGARLGYTALELLDQGNRALTHGTCPAVGIGGHVLGGGYGFATHTHGLTLDWLVGATVVLADASIVHVSKTENADLFWALRGGGGGFAIVSEFEFNTFEAPEIITTYQVTTTWNRKQHVAGLKALQDWAENTMPRELSMRLEINANALNWEGNYFGNAKDLKKVLQPIMKKAGGKSTISKLVETDWYGQINTYLAGADLNITYNYDVHEYFYANSLTAPRLSDEAISAFVDYKFDNSSVRPGRGWWIQWDFHGGKNSALASHSNDETAYAHRDQLWLWQFYDNIYDYENNTSPYPESGFEFMQGFVATIEDTLPEDRKGKYFNYADTTLDKEEAQKLYWRGNLEKLQAIKAKYDPEDVFGNVVSVEPIA
modifications: (1)..(206) FAD-binding domain; (207)..(474) substrate-binding domain
As to B2, in data set [3] (among GOOX variants, FIG. 7), the “specific activity on MeGlcA (in words)” value is “highest specific activity”. Further, in data set [3] (enzyme 16 nM, 37° C., 1 mM MeGlcA (FIG. 11 legend; b102 says 10 mM), 100 mM Tris pH 8.0 (GOOX variants) or 50 mM sodium acetate pH 5.0 (GO)), the “nmol oxidized MeGlcA Mean” value was found to be 2.5 nmol. Further, the “activity with MeGlcA as substrate (in words)” value in data set [3] (screening, compared with wtGOOX) was “improved activity over wtGOOX”. Further, the “activity retained on glucose” value in data set [4] is given as “more than 50%”. Further, the “nmol oxidized GlcA Mean” value in [5] is -0.03566 nmol. Also, the Km (commonly the concentration of substrate that gives half-maximal velocity) was 8.1 mM in data set [6] and 21 ± 2 mM in [8]. Further, in data set [7], the “activity retained on cellobiose” value is on record as 100%. For the same molecule, in [8], the “kcat on MeGlcA” value was determined as 0.0152 ± 0.001 s⁻¹. Also, in data set [9], the “efficiency on MeGlcA oxidation” value came out at 62%.
